T1: human OX40 on cells (human, UniProt P43489 29-277)
T1 sequence (looked up): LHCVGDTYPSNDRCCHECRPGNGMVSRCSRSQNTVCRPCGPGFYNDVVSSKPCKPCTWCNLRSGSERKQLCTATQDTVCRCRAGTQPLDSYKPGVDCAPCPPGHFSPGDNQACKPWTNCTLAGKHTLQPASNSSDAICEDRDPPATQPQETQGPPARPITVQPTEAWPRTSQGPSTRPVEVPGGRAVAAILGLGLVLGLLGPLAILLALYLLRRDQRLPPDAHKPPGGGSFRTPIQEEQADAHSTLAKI


Target: T1, human OX40 on cells
Assay: cell-based or functional assay

Binder | % donor responder (>2), SEB assay, IL-2 release [%] | Mean, normalized IL-2 release, SEB assay
Tetra-19 (bispecific antibody, human IgG1, kappa, L234A L235A) heavy 1: QVQLVQSGAEVKKPGASVKVSCKASGYTFTRYYMHWVRQAPGQGLEWMGWIYPGEGSTKYAQKFQGRVTMTRDTSISTAYMELSRLRSDDTAVYYCAREYGNYDYWGQGTLVTVSSASTKGPSVFPLAPSSKSTSGGTAALGCLVKDYFPEPVTVSWNSGALTSGVHTFPAVLQSSGLYSLSSVVTVPSSSLGTQTYICNVNHKPSNTKVDKKVEPKSCDKTHTCPPCPAPEAAGGPSVFLFPPKPKDTLMISRTPEVTCVVVDVSHEDPEVQFKWYVDGVEVHNAKTKPREEQYNSTFRVVSVLTVLHQDWLNGKEYKCKVSNKALPAPIEKTISKTKGQPREPAVYTLPPSREEMTKNQVKLVCLVTGFYPSDIAVEWESSGQPENNYYTTPPMLDSDGSFSLVSWLNVDKSRWQQGNIFSCSVMHEALHNRFTQKSLSLSPGGGGGTEVQLVESGGGLVQPGGSLRLSCAVSGYSITSDYAWNWIRQAPGKCLEWMGYISYSGSTAYNPSLKSRITISRDTSKNTFYLQMSSLRAEDTAVYYCARGPYNYLAYWGQGTLVTVSSGGGGSGGGGSGGGGSDIQLTQSPSSLSASVGDRVTITCRASESVDNYGISFMNWFQQKPGKAPKLLIYAASNQKSGVPSRFSGSGSGTDFTLTISSLQPEDFATYFCQQSKEVPLTFGCGTKVEIL heavy 2: QVQLVQSGAEVKKPGASVKVSCKASGYTFTRYYMHWVRQAPGQGLEWMGWIYPGEGSTKYAQKFQGRVTMTRDTSISTAYMELSRLRSDDTAVYYCAREYGNYDYWGQGTLVTVSSASTKGPSVFPLAPSSKSTSGGTAALGCLVKDYFPEPVTVSWNSGALTSGVHTFPAVLQSSGLYSLSSVVTVPSSSLGTQTYICNVNHKPSNTKVDKKVEPKSCDKTHTCPPCPAPEAAGGPSVFLFPPKPKDTLMISRTPEVTCVVVDVSHEDPEVKFNWYVDGVEVHNAKTKPREEQYNSTYRVVSVLTVLHQDWLNGKEYKCKVSNKALPAPIEKTISKAKGQPREPEVATFPPSRDELTKNQVTLVCLVTGFYPSDIAVEWESNGQPENNYKTDPPLLESQGSFALSSRLRVDKSRWQQGNVFSCSVMHEALHNHYTQKSLSLSPGGGGGTQVQLVQSGAEVKKPGASVKVSCKASGYTFTRYYMHWVRQAPGQGLEWMGWIYPGEGSTKYAQKFQGRVTMTRDTSISTAYMELSRLRSDDTAVYYCAREYGNYDYWGQGTLVTVSSASTKGPSVFPLAPSSKSTSGGTAALGCLVKDYFPEPVTVSWNSGALTSGVHTFPAVLQSSGLYSLSSVVTVPSSSLGTQTYICNVNHKPSNTKVDKKVEPKSC light: not shown | 0 | 1
Tetra-21 (bispecific antibody, human IgG1, kappa, L234A L235A) heavy 1: QVQLVQSGAEVKKPGASVKVSCKASGYTFTRYYMHWVRQAPGQGLEWMGWIYPGEGSTKYAQKFQGRVTMTRDTSISTAYMELSRLRSDDTAVYYCAREYGNYDYWGQGTLVTVSSASTKGPSVFPLAPSSKSTSGGTAALGCLVKDYFPEPVTVSWNSGALTSGVHTFPAVLQSSGLYSLSSVVTVPSSSLGTQTYICNVNHKPSNTKVDKKVEPKSCDKTHTCPPCPAPEAAGGPSVFLFPPKPKDTLMISRTPEVTCVVVDVSHEDPEVQFKWYVDGVEVHNAKTKPREEQYNSTFRVVSVLTVLHQDWLNGKEYKCKVSNKALPAPIEKTISKTKGQPREPAVYTLPPSREEMTKNQVKLVCLVTGFYPSDIAVEWESSGQPENNYYTTPPMLDSDGSFSLVSWLNVDKSRWQQGNIFSCSVMHEALHNRFTQKSLSLSPGGGGGTEVQLVESGGGLVQPGGSLRLSCAVSGYSITSDYAWNWIRQAPGKCLEWMGYISYSGSTAYNPSLKSRITISRDTSKNTFYLQMSSLRAEDTAVYYCARGPYNYLAYWGQGTLVTVSSGGGGSGGGGSGGGGSDIQLTQSPSSLSASVGDRVTITCRASESVDNYGISFMNWFQQKPGKAPKLLIYAASNQKSGVPSRFSGSGSGTDFTLTISSLQPEDFATYFCQQSKEVPLTFGCGTKVEIL heavy 2: EVQLVESGGGLVQPGGSLRLSCAVSGYSITSDYAWNWIRQAPGKCLEWMGYISYSGSTAYNPSLKSRITISRDTSKNTFYLQMNSLRAEDTAVYYCARGPYNYLAYWGQGTLVTVSSGGGGSGGGGSGGGGSDIQLTQSPSSLSASVGDRVTITCRASESVDNYGISFMNWFQQKPGKAPKLLIYAASNQKSGVPSRFSGSGSGTDFTLTISSLQPEDFATYFCQQSKEVPLTFGCGTKVEIKRTGGGGTDKTHTCPPCPAPEAAGGPSVFLFPPKPKDTLMISRTPEVTCVVVDVSHEDPEVKFNWYVDGVEVHNAKTKPREEQYNSTYRVVSVLTVLHQDWLNGKEYKCKVSNKALPAPIEKTISKAKGQPREPEVATFPPSRDELTKNQVTLVCLVTGFYPSDIAVEWESNGQPENNYKTDPPLLESQGSFALSSRLRVDKSRWQQGNVFSCSVMHEALHNHYTQKSLSLSPGGGGGTQVQLVQSGAEVKKPGASVKVSCKASGYTFTRYYMHWVRQAPGQGLEWMGWIYPGEGSTKYAQKFQGRVTMTRDTSISTAYMELSRLRSDDTAVYYCAREYGNYDYWGQGTLVTVSSASTKGPSVFPLAPSSKSTSGGTAALGCLVKDYFPEPVTVSWNSGALTSGVHTFPAVLQSSGLYSLSSVVTVPSSSLGTQTYICNVNHKPSNTKVDKKVEPKSC light: not shown | 8 | 1.32
2H6 IgG1 LALA (antibody) heavy: not shown light: DIQLTQSPSSLSASVGDRVTITCRASESVDNYGISFMNWFQQKPGKAPKLLIYAASNQKSGVPSRFSGSGSGTDFTLTISSLQPEDFATYFCQQSKEVPLTFGQGTKVEIKRTVAAPSVFIFPPSDEQLKSGTASVVCLLNNFYPREAKVQWKVDNALQSGNSQESVTEQDSKDSTYSLSSTLTLSKADYEKHKVYACEVTHQGLSSPVTKSFNRGEC | 25 | 1.45
Tetra-18 (antibody, human IgG1, kappa, L234A L235A) heavy: not shown light: DIQLTQSPSSLSASVGDRVTITCRASESVDNYGISFMNWFQQKPGKAPKLLIYAASNQKSGVPSRFSGSGSGTDFTLTISSLQPEDFATYFCQQSKEVPLTFGQGTKVEIKRTVAAPSVFIFPPSDEQLKSGTASVVCLLNNFYPREAKVQWKVDNALQSGNSQESVTEQDSKDSTYSLSSTLTLSKADYEKHKVYACEVTHQGLSSPVTKSFNRGEC | 0 | 0.88
Tetra-15 (antibody, human IgG1, kappa, L234A L235A) heavy: not shown light: DIQLTQSPSSLSASVGDRVTITCRASESVDNYGISFMNWFQQKPGKAPKLLIYAASNQKSGVPSRFSGSGSGTDFTLTISSLQPEDFATYFCQQSKEVPLTFGQGTKVEIKRTVAAPSVFIFPPSDEQLKSGTASVVCLLNNFYPREAKVQWKVDNALQSGNSQESVTEQDSKDSTYSLSSTLTLSKADYEKHKVYACEVTHQGLSSPVTKSFNRGEC | 0 | 0.93
Tetra-14 (bispecific antibody, human IgG1, kappa, L234A L235A) heavy: not shown light: DIQLTQSPSSLSASVGDRVTITCRASESVDNYGISFMNWFQQKPGKAPKLLIYAASNQKSGVPSRFSGSGSGTDFTLTISSLQPEDFATYFCQQSKEVPLTFGQGTKVEIKRTVAAPSVFIFPPSDEQLKSGTASVVCLLNNFYPREAKVQWKVDNALQSGNSQESVTEQDSKDSTYSLSSTLTLSKADYEKHKVYACEVTHQGLSSPVTKSFNRGEC | 40 | 1.65

Other lines, results leading:

% donor responder (>2), SEB assay, IL-2 release [%] | Mean, normalized IL-2 release, SEB assay | Binder
0 | 1.14 | Tetra-20 (bispecific antibody, human IgG1, kappa, L234A L235A) heavy 1: EVQLVESGGGLVQPGGSLRLSCAVSGYSITSDYAWNWIRQAPGKGLEWMGYISYSGSTAYNPSLKSRITISRDTSKNTFYLQMSSLRAEDTAVYYCARGPYNYLAYWGQGTLVTVSSASTKGPSVFPLAPSSKSTSGGTAALGCLVKDYFPEPVTVSWNSGALTSGVHTFPAVLQSSGLYSLSSVVTVPSSSLGTQTYICNVNHKPSNTKVDKKVEPKSCDKTHTCPPCPAPEAAGGPSVFLFPPKPKDTLMISRTPEVTCVVVDVSHEDPEVQFKWYVDGVEVHNAKTKPREEQYNSTFRVVSVLTVLHQDWLNGKEYKCKVSNKALPAPIEKTISKTKGQPREPAVYTLPPSREEMTKNQVKLVCLVTGFYPSDIAVEWESSGQPENNYYTTPPMLDSDGSFSLVSWLNVDKSRWQQGNIFSCSVMHEALHNRFTQKSLSLSPGGGGGTQVQLVQSGAEVKKPGASVKVSCKASGYTFTRYYMHWVRQAPGQCLEWMGWIYPGEGSTKYAQKFQGRVTMTRDTSISTAYMELSRLRSDDTAVYYCAREYGNYDYWGQGTLVTVSSGGGGSGGGGSGGGGSDIVMTQSPDSLAVSLGERATINCKSSQSLLNSGNQKNYLAWYQQKPGQPPKLLIYGASTRESGVPDRFSGSGSGTDFTLTISSLQAEDVAVYYCQNDHSYPYTFGCGTKLEIL heavy 2: EVQLVESGGGLVQPGGSLRLSCAVSGYSITSDYAWNWIRQAPGKGLEWMGYISYSGSTAYNPSLKSRITISRDTSKNTFYLQMNSLRAEDTAVYYCARGPYNYLAYWGQGTLVTVSSASTKGPSVFPLAPSSKSTSGGTAALGCLVKDYFPEPVTVSWNSGALTSGVHTFPAVLQSSGLYSLSSVVTVPSSSLGTQTYICNVNHKPSNTKVDKKVEPKSCDKTHTCPPCPAPEAAGGPSVFLFPPKPKDTLMISRTPEVTCVVVDVSHEDPEVKFNWYVDGVEVHNAKTKPREEQYNSTYRVVSVLTVLHQDWLNGKEYKCKVSNKALPAPIEKTISKAKGQPREPEVATFPPSRDELTKNQVTLVCLVTGFYPSDIAVEWESNGQPENNYKTDPPLLESDGSFALSSRLRVDKSRWQQGNVFSCSVMHEALHNHYTQKSLSLSPGGGGGTEVQLVESGGGLVQPGGSLRLSCAVSGYSITSDYAWNWIRQAPGKGLEWMGYISYSGSTAYNPSLKSRITISRDTSKNTFYLQMNSLRAEDTAVYYCARGPYNYLAYWGQGTLVTVSSASTKGPSVFPLAPSSKSTSGGTAALGCLVKDYFPEPVTVSWNSGALTSGVHTFPAVLQSSGLYSLSSVVTVPSSSLGTQTYICNVNHKPSNTKVDKKVEPKSC light: DIQLTQSPSSLSASVGDRVTITCRASESVDNYGISFMNWFQQKPGKAPKLLIYAASNQKSGVPSRFSGSGSGTDFTLTISSLQPEDFATYFCQQSKEVPLTFGQGTKVEIKRTVAAPSVFIFPPSDEQLKSGTASVVCLLNNFYPREAKVQWKVDNALQSGNSQESVTEQDSKDSTYSLSSTLTLSKADYEKHKVYACEVTHQGLSSPVTKSFNRGEC
6 | 0.81 | 7H11 IgG1 LALA (antibody, V domains shown) VH: QVQLVQSGAEVKKPGASVKVSCKASGYTFTRYYMHWVRQAPGQGLEWMGWIYPGDGSTKYAQKFQGRVTMTRDTSISTAYMELSRLRSDDTAVYYCAREYGNYDYWGQGTLVTVSS VL: DIVMTQSPDSLAVSLGERATINCKSSQSLLNSGNQKNYLAWYQQKPGQPPKLLIYGASTRESGVPDRFSGSGSGTDFTLTISSLQAEDVAVYYCQNDHSYPYTFGQGTKLEIKR
